Assay: soluble on expression in E. coli; label from the status in PepcDB or PDB records

Soluble on expression in E. coli, not soluble:
MGSDKIHHHHHHMRRALRPSMELISARTSSTSSIWTPRVSQSSELVFDATGCCSSLSGSSACDRGDGIVRGITMDRQRLQALGHKVRMIPAQFVKPHVKSNKSDIIDAEAIAEAATRPTMRFAAIKSEEQADLQALHRVRDQMIGTRTRLINQMGAFCLEYDIALRQGAGLFKLDLPLVLDDLE
MGSDKIHHHHHHMRRTYLTLSEEDKDYLKTLSKKRTIQAQIVDRAKILLYKSDGMTFNAIAEKLAISSATVRLCVSKYYEGGIEKALFDTQRPGRPSEITDDAKAWIINLACQRPVELGYAQELWTLNALHKHIQKHAEEAGYPRLTTITKPYIQKFLKEQDIKPFKIRYYCEKRDQDFESKMHEVLLVYKQIEMQFDENGTLIVPDDYKLTITVSYDEKPGIQAISNTAPDLRPTTENGEVYRDAEYKRLGTLSLLAGIDLLTGEAIPLVSETHKSSDFIEFLKIRDKKYPLQDTIRIILDNHSAHTSKETQRFLDTMPKGRFKFVFTPKHGSWLNMIESFFSKMTKQMLRGIRVKTKQELEERIYQYFEEVNREPVVYHWKYKMDEIEKKKCCTELWMPFSAH
MGSDKIHHHHHHMRSITTNYSDDGYNFAFLDEQTKRMVRRTLLKALSIPGYQVPFGGREMPLASGWGTGGIQITASVLGPNDRLKVIDQGADDTTNAVSIRRFFQTVADISVTESTEEATIIQTRHRVPEAPLTEGQILVYQVPEPEPLRKLIPRESETRKMHAYAEYGAMQVTLYENIARFGRIAKTYDYPAMINGRFLMSPSPIPKFDNPKMANNPAIQFWGAGREKRIYAVPPYTSVRSLDFDDHPFEVQTWQGCCALCGSTVSYLDEVITDDKGSRMFVCSDTDFCNTRQAQAAAQPNSAGGES
MGSDKIHHHHHHMRSMTDVRRYWISLLRKICEMPLELCASDRLKKSMPVEGKKSEERRKFTHLELLGRIFCGISPFLELNRESPSTDPEERKIATRLSEFAVKSLDVATNPNCKDYMNFKEGRQPLVDAAFLVEAILRAPKVLWEDLDVSTKKRLIRELKATRKIEPYFSNWLLFSAMIETFFFFAGEEWDSTKVDLILKNVESWYKGDGAYGDGPFFRWDYYNSFVIYPMTIDVLRIISEEKTEWKELYVKVLRRAQRYAVVLERMISPEGTFPIIGRSITYRTAVFHLLSQLSLLHLLPASLSPAQVRCALTAVLRRIFENPSTFDENGWLKIGVIGSQPSLGEEYITTGSLYLCTTVFLPLGLPTSDPFWRDPCKKWTNKKVWEGEDVAPDRALED
MGSDKIHHHHHHMRTNVRLLAYRLLRKYEKEKFISREDVDSVLSFLDDRDRRFFKELVWGVVRKEELLDWYINQLLKKKDIPPAVRVALRMGAYQLLFMNSVPDYAAVSETVKLVKNENFKKLVNAVLRRLRTVPEPKELHLVYSHPEWIVNYWRSFLPEEAVLRIMKWNQEPLPVMLRVNSLAATKEEVIKILAEEGTEAVPGKHAPFSLIVRKLGVPMNDSRVINDGLASVQGESSQLVPFFMELRPGLRVLDTCAAPGGKTTAIAELMKDQGKILAVDISREKIQLVEKHAKRLKLSSIETKIADAERLTEYVQDTFDRVLVDAPCTSLGTARNHPEVLRRVNKEDFEKFSEIQLRMVQQAWQLLEKGGILLYSTCTVTKEENTEVVKRFVYEQKDVEVIDIRDKMKEFEVEGIWDGYGFLMLPDETITPFYISVLRKMG
MGSDKIHHHHHHMRTSLLYKIKEEERILPSKNLKGNEIIFILAFPDIYKYGLPNLGIQTLYKELYLRDDVAVDRYYTDEDQPFSFEYGFKLKDSDFIGISFQYEGIVLNAFKILKAGSIPLINLLREENDPIIIGGGPVANYNPLPLSLVCDVIVLGEAEEAIHKIIDSYKVYRNVKRKRMKFLQAVSQIEGIYVPCIHGFFQTGMVKQTSPVDINEHPAHSIFVTKNTVYEERVFSIEVRRGCTQRCRFCYMGHRLKPPRTLRWETFKKIVDLAIDQCNVEIIKLFYEGLETRIVEHYLEYIIKKGGRVRIGSQRLEKLSKRIIEIAAISGQRKITVAPETSGRLRKVIGKHEIKDEEILEVVRISSLYGIPDFGLYFILAIPGETFEDLDKIADLIMKVRHQMNKLKNTDGRLEIGINPLYPKPFTPFQYVKLPSLKNIEDRFLYIVEKVKKEGFPVVISNDVVDEKVEKRQKDENENESLVKFETTVFHPISLLQPMISRGGLEIAFLLHYLHSKRFNTVSDLENLLNEFGINAAWYFEEYIDKYCPWKIQKTLISEDYLLKEYFKALNFISTDEECKLNCSQCFNRCIDISTTNYQGGMSNA
MGSDKIHHHHHHMRVDVMVIGAGAAGMAAALKAKEEGAEVLLVERDERTGGILNQCIHNGFGLHYFRQELTGPEYAERFQEKMEKMGIRALTNAYVKRVEDRRVILVTEQGIEEVEVGALVYATGARERPFGSLMIPGDRPSGIFTAGVAQRLINIENRLPGKRALILGSGDIGLIMARRLTLEGMEVVGVVERLPYAGGLLRNVIQCLEDYNIPLYLSSTVVEVRGRERLEEVVVAKVDEQFRPIPRTERVFKVDTLVLSVGLIPQVELIENLVVKNPTSRGVGVSNIGQTSRDWIFSAGNCTVIFDLVDYVSYEGETAGRYAAKFVKGEIPREKIPVRPGKNVMVVHPIWYTPAEPLTLYLRVKKPMEKGRLVVGRFAREFEDLVPSEMLRVKISDRDLEGLDEIVVSVEEVN
MGSDKIHHHHHHMRVLAIRHVEIEDLGMMEDIFREKNWSFDYLDTPKGEKLERPLEEYSLVVLLGGYMGAYEEEKYPFLKYEFQLIEEILKKEIPFLGICLGSQMLAKVLGASVYRGKNGEEIGWYFVEKVSDNKFFREFPDRLRVFQWHGDTFDLPRRATRVFTSEKYENQGFVYGKAVGLQFHIEVGARTMKRWIEAYKDELEKKKIDPRLLLETAEREEKVLKGLLRSLLERMVES
MGSDKIHHHHHHMRWIAPTEKDVAAATLEKRLWAAADELRANSGLKSAEYSQPILGLIFLKFADARFAVRRAELAKVTTGRRGSRVDDPASYHAEGVLFLASEARFSELLEFPEGGRDGKTLGQAVDDAMRAVERDNEQLAGVLPKTYQQFKARPLKELLKAFSAIPVDLEGDSFGKIYEYFLGEFAMAEGQGGGEFYTPQPIVRLMVEILEPFKGRVLDPACGSGGMFVQSARFVSEHKKNGGLAIHGVEKVDTTGQLCRMNLAVHGLEGDIRHGGEINSYYDDPHNAVGRFDFVLANPPFNVDKVDKDRIRDAVGPGRRFPFGVPNVDNANYLWIQLFYSALNESGRAGFVMASSAPDARASEQELRRKLIESRAVDVIISVGSKMFYTVALPCTLWFLDRGKPKDRRDKVLFIDAQHIYRQVDRAHRDWTEAQIGFLANVARLFRREEVDLTFGGAEAKYRLREVFGNKPTYADVAGFCKAATISEIEKQAWSLNPGRYVGAAQGEEVSDEDFRTQFEGLAEEFETLTAEAREFEKVITKTAAEILG
MGSDKIHHHHHHMRYNCLYLIFKESRFVKIAIVANTSWNIYNFRLNLIHFFLAHKYEVVCIAPVDRHTEALTTLPVTFVPVEIDSKGNNPIKDARLVGKFLSIYKKHKPDVILQYTIKPNIYGTLAAKLCGIPTINTVTGLGTVFLHDTCITRLAQQLYAFSFKFATVAVFQNEDDRDIFVQKRIITHAKTQIIKGSGVNTTHFIPAKTYSKAFAFLMVARLLYDKGIREYAQAAKCLHEQHGNNVQCLLIGAIDSDKQLGINKEDVHAWANRHHLIYKPFDTAILKEYQQANVVVLPSYREGLSKSLLEAGACGKPLIASNVSGCKEIVIDNWNGYLCEAKDAGNLFDKMNLMLETSPEQLAEMGKNSRDFIEQNFSDKIISNDYFYLIKRVTESKKTNTNDIH
MGSDKIHHHHHHMSADGSEYGRYFEQLQKVNLTVRLGDTGSFDGTAAITSLKGSLAWLELFGAEQPPPNTLSEGAEVSVSVWTGGALCRCDGRVETLRDDRQFAIRLVGRVRELQRREYFRLDVSIPFSYELLAGVSPEEAQERWLHERMDSWRSPAMVQEGSSWRVVDWNGRDIPSARANLSGGGMRFRVSEDVASGTLMLVSLFLPHPQPRVICVLAEALRCAEITLTLQAGTHYSLSMRFITISDKDREAVISYLFSEQRRELMSKSDRFQIGGRR
MGSDKIHHHHHHMSARYLDPKKRHEFVFLFDVRDGNPNGDPDAGNLPRVDPETMHGLVTDVALKRKIRDYIALTREGKPRFAIFVQSRVALNRLILEGFQEAGIEPVSLQLAEEQMANESLLEHLDGLAEAGFSREGGTLYYSGQATTEKEIAKLLMGEEEAVAPFKKELEKLAKELAKAVKGRKITEEDRERAQAKLLERFFDIRMFGAVLSTGLNAGQVRGPVQLTFARSLDPIAPLEVSITRVAITREEDRARKETEMGRKPLVPYGLYRAHGFFNPFLAAKTGVQPEDLEALWDALQHLFELDRSAARGEMTVRGLAVFSHEDAKGNAPAHRLFGLIRVERREGVEAPRSFADYRVRAPKEGSLEAHGFPGVHLAWLVRPEGLEDLPPHVG
MGSDKIHHHHHHMSASIPETMKAVVIENGKAVVKQDIPIPELEEGFVLIKTVAVAGNPTDWKHIDFKIGPQGALLGCDAAGQIVKLGPNVDAARFAIGDYIYGVIHGASVRFPSNGAFAEYSAISSETAYKPAREFRLCGKDKLPEGPVKSLEGAVSLPVSLTTAGMILTHSFGLDMTWKPSKAQRDQPILFWGGATAVGQMLIQLAKKLNGFSKIIVVASRKHEKLLKEYGADELFDYHDADVIEQIKKKYNNIPYLVDCVSNTETIQQVYKCAADDLDATVVQLTVLTEKDIKEEDRRQNVSIEGTLLYLIGGNDVPFGTFTLPADPEYKEAAIKFIKFINPKINDGEIHHIPVKVYKNGLDDIPQL
MGSDKIHHHHHHMSATKIDAVYLDADVTAYKGNPFIEALPPLQESVNSAAALRSTSLFDASDLQKPRVVRAHSICRITNDFFQPLGSHMLLSERVSLMIRGGYVGRNPKTGDLQRHLQNGYERVQSGDLSSFRFEEAKSTAQSMLLIGCSGSGKTTSLARILDTYPQVIYHPTMNFEQVVYLKVDCSHNGSLKEICLNFFRALDKALGSNYEKKYGLKRNGIETMLALMAQIANAHAVGLLVIDEIQHLSRAKSGGPEAMLNFFVTMVNTIGVPVMLIGTPKAREIFEIDLRSARRGSGLGAIFWEPMKQGPNGKRNPEWAAFTDNLWKQQLLQSKDLVLTDDLRDLWYDLSQGVMDTVVKLFVLSQLRALALGKERLTPGLMKQVYKDELKPVHPMLEALRSGVPEKIAQYSDLMLPEMDKRLIQLQRDIAGMKVETPEELALKQLATDDERRIYLMLKDDYDSSLLVATVRKAFAENPKLTRPQLLPVILNWLSDTDNPVKPEQPKTQVKNTKPDQWDTLDWDDLRYISSQQQSAAAMHSALGTKGLLFDLRRRMT
MGSDKIHHHHHHMSDADPKVPHRGHELLDVLARLGGSARNAQIAQVMDVSEETVRRLVKTLAKQGKVERVHGGTYLRGSQDAPMYSGALEQQPKEKTRIAKGVLELIRDGMTLFINVGSTTTYVAEQLRERRDLTIVTNSISTVASLADHNGSRVFLAGGEVSRSERGCFGRATEDFARRFAYDVLVIGADAMSPELGVLAANPREAELTRALLGNATRVIVAADYRKFSAIAPCIAAPLEAITDLVTDAAPPDALQDALDRCGVATHLAAKSGRITTRTPPPQDVGHSNTNRKTLSFPTEVS
MGSDKIHHHHHHMSDIIDEVISSFKTSSIFINREYLLPDYIPDELPHREDQIRKIASILAPLYREEKPNNIFIYGLTGTGKTAVVKFVLSKLHKKFLGKFKHVYINTRQIDTPYRVLADLLESLDVKVPFTGLSIAELYRRLVKAVRDYGSQVVIVLDEIDAFVKKYNDDILYKLSRINSEVNKSKISFIGITNDVKFVDLLDPRVKSSLSEEEIIFPPYNAEELEDILTKRAQMAFKPGVLPDNVIKLCAALAAREHGDARRALDLLRVSGEIAERMKDTKVKEEYVYMAKEEIERDRVRDIILTLPFHSKLVLMAVVSISSEENVVSTTGAVYETYLNICKKLGVEAVTQRRVSDIINELDMVGILTAKVVNRGRYGKTKEIGLAVDKNIIVRSLIESDSRFADLWS
